Reference: paper PMC9984387, “The dynamic nature of netrin-1 and the structural basis for glycosaminoglycan fragment-induced filament formation” (Nature Communications, 2023)

Biological target: His-tagged NET1ΔC (coated in ELISA) (not stated (chicken or mouse cDNA cloned))
Test: ELISA; NET1ΔC coated; serial dilutions of strep-tagged HSPGs (0.5–500 nM) in solution; detection with strep-HRP; apparent constants

Substance “glypican-3 (AF185614 aa 25-557 R357A) (from UniProt Q8CFZ4 25-557) (domain or fragment)” has a Kd of 10 to 20 nM.
